# Patent publication US20090312247
# Assays:
# [1] = test system: full-length NPRA (SEQ ID NO: 2)
# [2] = test system: FLAG-epitope tagged NPRA stably over-expressed in HEK293 cells (HEK-NPRA cells)
# [3] = test system: 5'-FLAG epitope-tagged sNRF^(806-900)
# Sequence of 5'-FLAG epitope-tagged sNRF^(806-900) (chain, as listed by the source): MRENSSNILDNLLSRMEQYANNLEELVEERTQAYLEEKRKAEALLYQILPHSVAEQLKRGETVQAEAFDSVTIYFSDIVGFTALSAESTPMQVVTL
# Sequence of full-length NPRA (SEQ ID NO: 2) (chain, as listed by the source): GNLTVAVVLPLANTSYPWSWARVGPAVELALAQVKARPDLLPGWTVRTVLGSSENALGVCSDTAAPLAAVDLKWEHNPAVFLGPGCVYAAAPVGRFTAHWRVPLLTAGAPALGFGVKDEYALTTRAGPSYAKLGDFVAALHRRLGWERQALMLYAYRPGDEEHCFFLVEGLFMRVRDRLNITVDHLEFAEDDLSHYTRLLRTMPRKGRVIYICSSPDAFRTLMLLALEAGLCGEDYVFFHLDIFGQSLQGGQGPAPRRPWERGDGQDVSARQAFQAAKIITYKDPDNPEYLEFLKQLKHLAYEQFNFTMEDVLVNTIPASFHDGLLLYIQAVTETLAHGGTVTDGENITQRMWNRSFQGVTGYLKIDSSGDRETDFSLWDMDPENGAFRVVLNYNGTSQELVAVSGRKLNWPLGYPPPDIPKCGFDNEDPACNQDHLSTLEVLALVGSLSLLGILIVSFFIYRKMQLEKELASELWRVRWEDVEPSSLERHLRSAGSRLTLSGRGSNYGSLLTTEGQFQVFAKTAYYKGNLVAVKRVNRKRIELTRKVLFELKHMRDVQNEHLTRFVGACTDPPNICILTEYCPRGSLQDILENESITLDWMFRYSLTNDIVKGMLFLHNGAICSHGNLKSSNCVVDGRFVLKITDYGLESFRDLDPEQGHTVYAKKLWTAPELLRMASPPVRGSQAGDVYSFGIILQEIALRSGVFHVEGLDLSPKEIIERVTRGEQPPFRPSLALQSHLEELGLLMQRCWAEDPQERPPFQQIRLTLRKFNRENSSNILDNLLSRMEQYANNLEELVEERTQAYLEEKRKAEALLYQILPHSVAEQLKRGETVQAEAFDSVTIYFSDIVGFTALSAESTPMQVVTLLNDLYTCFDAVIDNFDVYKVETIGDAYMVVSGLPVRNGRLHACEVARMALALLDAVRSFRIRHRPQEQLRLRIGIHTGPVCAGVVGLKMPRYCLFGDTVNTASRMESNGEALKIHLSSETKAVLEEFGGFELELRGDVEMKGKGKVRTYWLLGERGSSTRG
substance,measurement,setting,value
recombinant PKG,"phosphorylation ([35S]ATPγS incorporation, autoradiography of Cos7 membrane lysates)",[1],SDS page gels demonstrated a phosphorylated 137 kD protein that corresponded to full-length NPRA
cGMP-dependent protein kinase I (PKG) in HEK-NPRA cells,"ANP-induced phosphorylation of a 137-kD protein ([35S]ATPγS, autoradiography)",[2],"Robust phosphorylation of a 137-kD protein occurred in the NPRA-expressing cells, but not in control cells"
"cGMP-dependent protein kinase I (PKG), endogenous in neonatal rat cardiac fibroblasts",ANP-induced NPRA phosphorylation in cardiac fibroblasts ([35S]ATPγS incorporation),[3],both KT5823 or expressed sNRF^(806-900) protein reduced ANP-induced NPRA phosphorylation to control levels
